Patent US20150246959A1 (US Dept. of Health and Human Services, published 2015)

Columns and labels:
Experiment in all cases: cell-based or functional assay
[1] = target: MAGE-A3: 243-256 peptide presented by HLA-DP*0401 on 293-CIITA cells (human, UniProt P20036 29-260)
[2] = target: MAGE-A3: 243-255 peptide presented by HLA-DP*0401 on 293-CIITA cells (human, UniProt P20036 29-260)
[3] = target: MAGE-A3: 243-254 peptide presented by HLA-DP*0401 on 293-CIITA cells (human, UniProt P20036 29-260)
[4] = target: MAGE-A3: 243-253 peptide presented by HLA-DP*0401 on 293-CIITA cells (human, UniProt P20036 29-260)
[5] = target: MAGE-A3: 245-258 peptide presented by HLA-DP*0401 on 293-CIITA cells (human, UniProt P20036 29-260)
[6] = target: MAGE-A3: 246-258 peptide presented by HLA-DP*0401 on 293-CIITA cells (human, UniProt P20036 29-260)
[7] = target: MAGE-A3: 247-258 peptide presented by HLA-DP*0401 on 293-CIITA cells (human, UniProt P20036 29-260)
[8] = target: MAGE-A3: 248-258 peptide presented by HLA-DP*0401 on 293-CIITA cells (human, UniProt P20036 29-260)
[9] = target: MAGE-A3: 249-258 peptide presented by HLA-DP*0401 on 293-CIITA cells (human, UniProt P20036 29-260)
[10] = target: MAGE-A6: 248-258 peptide presented by HLA-DP*0401 on 293-CIITA cells (human, UniProt P20036 29-260)
[11] = target: MAGE-A2/A12: 248-258 peptide presented by HLA-DP*0401 on 293-CIITA cells (human, UniProt P20036 29-260)
[12] = target: MAGE-A4/A9: 249-259 peptide presented by HLA-DP*0401 on 293-CIITA cells (human, UniProt P20036 29-260)
[13] = target: MAGE-A8: 251-261 peptide presented by HLA-DP*0401 on 293-CIITA cells (human, UniProt P20036 29-260)
[14] = target: MAGE-A1/B4: 241-251 peptide presented by HLA-DP*0401 on 293-CIITA cells (human, UniProt P20036 29-260)
[15] = target: MAGE-B2: 250-260 peptide presented by HLA-DP*0401 on 293-CIITA cells (human, UniProt P20036 29-260)
[16] = target: MAGE-B10: 250-260 peptide presented by HLA-DP*0401 on 293-CIITA cells (human, UniProt P20036 29-260)
[17] = target: MAGE-B16: 252-262 peptide presented by HLA-DP*0401 on 293-CIITA cells (human, UniProt P20036 29-260)
[18] = target: MAGE-C1: 113-123 peptide presented by HLA-DP*0401 on 293-CIITA cells (human, UniProt P20036 29-260)
[19] = target: MAGE-D4: 300-315 peptide presented by HLA-DP*0401 on 293-CIITA cells (human, UniProt P20036 29-260)
[20] = target: MAGE-D2: 413-428 peptide presented by HLA-DP*0401 on 293-CIITA cells (human, UniProt P20036 29-260)
[21] = target: MAGE-L2: 582-597 peptide presented by HLA-DP*0401 on 293-CIITA cells (human, UniProt P20036 29-260)
[22] = target: MAGE-G1: 220-235 peptide presented by HLA-DP*0401 on 293-CIITA cells (human, UniProt P20036 29-260)
[23] = target: Necdin: 237-247 peptide presented by HLA-DP*0401 on 293-CIITA cells (human, UniProt P20036 29-260)
[24] = target: MAGE-A3: 243-258 peptide presented by HLA-DP*0401 on 293-CIITA cells (human, UniProt P20036 29-260)

IFN-g (pg/ml); CD4+ T cells of PBMC-1; 293-CIITA pulsed with peptide [1]: 1820 pg/mL
IFN-g (pg/ml); CD4+ T cells of PBMC-2; 293-CIITA pulsed with peptide [1]: 2490 pg/mL
IFN-g (pg/ml); CD4+ T cells of PBMC-1; 293-CIITA pulsed with peptide [2]: 137 pg/mL
IFN-g (pg/ml); CD4+ T cells of PBMC-2; 293-CIITA pulsed with peptide [2]: 117 pg/mL
IFN-g (pg/ml); CD4+ T cells of PBMC-1; 293-CIITA pulsed with peptide [3]: 0 pg/mL
IFN-g (pg/ml); CD4+ T cells of PBMC-2; 293-CIITA pulsed with peptide [3]: 39 pg/mL
IFN-g (pg/ml); CD4+ T cells of PBMC-1; 293-CIITA pulsed with peptide [4]: 40 pg/mL
IFN-g (pg/ml); CD4+ T cells of PBMC-2; 293-CIITA pulsed with peptide [4]: 45 pg/mL
IFN-g (pg/ml); CD4+ T cells of PBMC-1; 293-CIITA pulsed with peptide [5]: 15000 pg/mL
IFN-g (pg/ml); CD4+ T cells of PBMC-2; 293-CIITA pulsed with peptide [5]: 17800 pg/mL
IFN-g (pg/ml); CD4+ T cells of PBMC-1; 293-CIITA pulsed with peptide [6]: 12700 pg/mL
IFN-g (pg/ml); CD4+ T cells of PBMC-2; 293-CIITA pulsed with peptide [6]: 16200 pg/mL
IFN-g (pg/ml); CD4+ T cells of PBMC-1; 293-CIITA pulsed with peptide [7]: 10600 pg/mL
IFN-g (pg/ml); CD4+ T cells of PBMC-2; 293-CIITA pulsed with peptide [7]: 13300 pg/mL
IFN-g (pg/ml); CD4+ T cells of PBMC-1; 293-CIITA pulsed with peptide [8]: 9000 pg/mL
IFN-g (pg/ml); CD4+ T cells of PBMC-2; 293-CIITA pulsed with peptide [8]: 8700 pg/mL
IFN-g (pg/ml); CD4+ T cells of PBMC-1; 293-CIITA pulsed with peptide [9]: 1640 pg/mL
IFN-g (pg/ml); CD4+ T cells of PBMC-2; 293-CIITA pulsed with peptide [9]: 2030 pg/mL
IFN-g (pg/ml); CD4+ T cells of PBMC-1; 293-CIITA pulsed with peptide [10]: 11800 pg/mL
IFN-g (pg/ml); CD4+ T cells of PBMC-2; 293-CIITA pulsed with peptide [10]: 8370 pg/mL
IFN-g (pg/ml); CD4+ T cells of PBMC-1; 293-CIITA pulsed with peptide [11]: 66 pg/mL
IFN-g (pg/ml); CD4+ T cells of PBMC-2; 293-CIITA pulsed with peptide [11]: 56 pg/mL
IFN-g (pg/ml); CD4+ T cells of PBMC-1; 293-CIITA pulsed with peptide [12]: 23 pg/mL
IFN-g (pg/ml); CD4+ T cells of PBMC-2; 293-CIITA pulsed with peptide [12]: 26 pg/mL
IFN-g (pg/ml); CD4+ T cells of PBMC-1; 293-CIITA pulsed with peptide [13]: 58 pg/mL
IFN-g (pg/ml); CD4+ T cells of PBMC-2; 293-CIITA pulsed with peptide [13]: 41 pg/mL
IFN-g (pg/ml); CD4+ T cells of PBMC-1; 293-CIITA pulsed with peptide [14]: 126 pg/mL
IFN-g (pg/ml); CD4+ T cells of PBMC-2; 293-CIITA pulsed with peptide [14]: 84 pg/mL
IFN-g (pg/ml); CD4+ T cells of PBMC-1; 293-CIITA pulsed with peptide [15]: 0 pg/mL
IFN-g (pg/ml); CD4+ T cells of PBMC-2; 293-CIITA pulsed with peptide [15]: 20 pg/mL
IFN-g (pg/ml); CD4+ T cells of PBMC-1; 293-CIITA pulsed with peptide [16]: 18 pg/mL
IFN-g (pg/ml); CD4+ T cells of PBMC-2; 293-CIITA pulsed with peptide [16]: 34 pg/mL
IFN-g (pg/ml); CD4+ T cells of PBMC-1; 293-CIITA pulsed with peptide [17]: 27 pg/mL
IFN-g (pg/ml); CD4+ T cells of PBMC-2; 293-CIITA pulsed with peptide [17]: 28 pg/mL
IFN-g (pg/ml); CD4+ T cells of PBMC-1; 293-CIITA pulsed with peptide [18]: 0 pg/mL
IFN-g (pg/ml); CD4+ T cells of PBMC-2; 293-CIITA pulsed with peptide [18]: 27 pg/mL
IFN-g (pg/ml); CD4+ T cells of PBMC-1; 293-CIITA pulsed with peptide [19]: 234 pg/mL
IFN-g (pg/ml); CD4+ T cells of PBMC-2; 293-CIITA pulsed with peptide [19]: 268 pg/mL
IFN-g (pg/ml); CD4+ T cells of PBMC-1; 293-CIITA pulsed with peptide [20]: 43 pg/mL
IFN-g (pg/ml); CD4+ T cells of PBMC-2; 293-CIITA pulsed with peptide [20]: 223 pg/mL
IFN-g (pg/ml); CD4+ T cells of PBMC-1; 293-CIITA pulsed with peptide [21]: 56 pg/mL
IFN-g (pg/ml); CD4+ T cells of PBMC-2; 293-CIITA pulsed with peptide [21]: 107 pg/mL
IFN-g (pg/ml); CD4+ T cells of PBMC-1; 293-CIITA pulsed with peptide [22]: 29 pg/mL
IFN-g (pg/ml); CD4+ T cells of PBMC-2; 293-CIITA pulsed with peptide [22]: 33 pg/mL
IFN-g (pg/ml); CD4+ T cells of PBMC-1; 293-CIITA pulsed with peptide [23]: 22 pg/mL
IFN-g (pg/ml); CD4+ T cells of PBMC-2; 293-CIITA pulsed with peptide [23]: 32 pg/mL
IFN-g (pg/ml); CD4+ T cells of PBMC-1; 293-CIITA pulsed with peptide [24]: 15200 pg/mL
IFN-g (pg/ml); CD4+ T cells of PBMC-2; 293-CIITA pulsed with peptide [24]: 17500 pg/mL
B1: 6F9mC TCR (TCR)
TCR alpha: QTVTQSQPEMSVQEAETVTLSCTYDTSESDYYLFWYKQPPSRQMILVIRQEAYKQQNATENRFSVNFQKAAKSFSLKISDSQLGDAAMYFCALRSSGTYKYIFGTGTRLKVLANIQNPEPAVYQLKDPRSQDSTLCLFTDFDSQINVPKTMESGTFITDKTVLDMKAMDSKSNGAIAWSNQTSFTCQDIFKETNATYPSSDVPCDATLTEKSFETDMNLNFQNLSVMGLRILLLKVAGFNLLMTLRLWSS
TCR beta: GAGVSQSPSNKVTEKGKDVELRCDPISGHTALYWYRQSLGQGLEFLIYFQGNSAPDKSGLPSDRFSAERTGGSVSTLTIQRTQQEDSAVYLCASIRTGPFFSGNTIYFGEGSWLTVVEDLRNVTPPKVSLFEPSKAEIANKQKATLVCLARGFFPDHVELSWWVNGKEVHSGVSTDPQAYKESNYSYCLSSRLRVSATFWHNPRNHFRCQVQFHGLSEEDKWPEGSPKPVTQNISAEAWGRADCGITSASYHQGVLSATILYEILLGKATLYAVLVSGLVLMAMVKRKNS
